{"source": "patent US6406896", "key": {"[1]": {"system": "Tnp sC7v2.0 purified R8C,E58V,E344K,L372Q", "experiment": "cleavage_in_vitro", "details": "dam methylation of adenines in the two GATC sites (four methyl groups per end); in vitro transposition, 3 h, 37C, 280 nM Tnp, 35.5 nM pGT4"}, "[2]": {"system": "sC7 A157T minus one R8C,E58V,T171S,D217A,E344K,L372Q", "experiment": "cell_activity", "details": "mating out, dam+ strain"}, "[3]": {"system": "sC7 D217A minus one R8C,E58V,A157T,T171S,E344K,L372Q", "experiment": "cell_activity", "details": "mating out, dam+ strain"}, "[4]": {"target": "Tnp sC7 R8C,E58V,A157T,T171S,D217A,E344K,L372Q (UniProt Q46731)", "experiment": "cell_activity", "details": "mating out"}, "[5]": {"system": "sC7 E58V minus one R8C,A157T,T171S,D217A,E344K,L372Q", "experiment": "cell_activity", "details": "mating out, dam+ strain"}, "[6]": {"system": "sC7 L372Q minus one R8C,E58V,A157T,T171S,D217A,E344K", "experiment": "cell_activity", "details": "mating out, dam+ strain"}, "Tnp L372Q plus one L372Q": {"system": "Tnp L372Q plus one L372Q", "experiment": "cell_activity", "details": "mating out, dam+ strain"}, "[7]": {"system": "Tnp sC7(157,171) R8C,E58V,D217A,E344K,L372Q", "experiment": "cell_activity", "details": "mating out, dam+ strain"}, "[8]": {"system": "sC7 R8C minus one E58V,A157T,T171S,D217A,E344K,L372Q", "experiment": "cell_activity", "details": "mating out, dam+ strain"}, "[9]": {"system": "sC7 T171S minus one R8C,E58V,A157T,D217A,E344K,L372Q", "experiment": "cell_activity", "details": "mating out, dam+ strain"}, "[10]": {"system": "sC7 E344K minus one R8C,E58V,A157T,T171S,D217A,L372Q", "experiment": "cell_activity", "details": "mating out, dam+ strain"}, "Tnp E58V plus one E58V": {"system": "Tnp E58V plus one E58V", "experiment": "cell_activity", "details": "mating out, dam+ strain"}, "Tnp T171S plus one T171S": {"system": "Tnp T171S plus one T171S", "experiment": "cell_activity", "details": "mating out, dam+ strain"}, "[11]": {"target": "Tn5 transposase wild-type (Tnp WT) (UniProt Q46731)", "experiment": "cell_activity", "details": "mating out"}, "[12]": {"system": "Tnp sC7(157,217) R8C,E58V,T171S,E344K,L372Q", "experiment": "cell_activity", "details": "mating out, dam+ strain"}, "[13]": {"system": "Tnp sC7(171,217) R8C,E58V,A157T,E344K,L372Q", "experiment": "cell_activity", "details": "mating out, dam+ strain"}, "[14]": {"system": "Tnp sC7v2.0 (sC7(157,171,217)) R8C,E58V,E344K,L372Q", "experiment": "cell_activity", "details": "mating out, dam+ strain"}, "Tnp E344K plus one E344K": {"system": "Tnp E344K plus one E344K", "experiment": "cell_activity", "details": "mating out, dam+ strain"}, "Tnp R8C plus one R8C": {"system": "Tnp R8C plus one R8C", "experiment": "cell_activity", "details": "mating out, dam+ strain"}, "Tnp D217A plus one D217A": {"system": "Tnp D217A plus one D217A", "experiment": "cell_activity", "details": "mating out, dam+ strain"}, "Tnp A157T plus one A157T": {"system": "Tnp A157T plus one A157T", "experiment": "cell_activity", "details": "mating out, dam+ strain"}, "[15]": {"details": "dam methylation of adenines in the two GATC sites (four methyl groups per end)"}, "[16]": {"details": "dam methylation of adenines in the two GATC sites (four methyl groups per end), dam+ strain"}}}
{"substance": "Dam-methylated Tn5 inside end (IEME)", "values": [{"measurement": "activity (% supercoiled plasmid converted)", "setting": "[1]", "result": 66}, {"measurement": "activity (transposition frequency)", "setting": "[2]; [15]", "result": 0.0031}, {"measurement": "activity (transposition frequency)", "setting": "[3]; [15]", "result": 0.0037}, {"measurement": "activity (transposition frequency)", "setting": "[4]; [16]", "result": 0.0026}, {"measurement": "activity (transposition frequency)", "setting": "[5]; [15]", "result": "1.8e-06"}, {"measurement": "activity (transposition frequency)", "setting": "[6]; [15]", "result": 0.00026}, {"measurement": "activity (transposition frequency)", "setting": "Tnp L372Q plus one L372Q; dam methylation of adenines in the two GATC sites (four methyl groups per end), 8.9-fold over WT", "result": "8.9e-08"}, {"measurement": "activity (transposition frequency)", "setting": "[7]; [15]", "result": 0.0065}, {"measurement": "activity (transposition frequency)", "setting": "[8]; [15]", "result": 0.0031}, {"measurement": "activity (transposition frequency)", "setting": "[9]; [15]", "result": 0.0028}, {"measurement": "activity (transposition frequency)", "setting": "[10]; [15]", "result": 0.00055}, {"measurement": "activity (transposition frequency)", "setting": "Tnp E58V plus one E58V; dam methylation of adenines in the two GATC sites (four methyl groups per end), 40000-fold over WT", "result": 0.0004}, {"measurement": "activity (transposition frequency)", "setting": "Tnp T171S plus one T171S; [15]", "result": "5.6e-09"}, {"measurement": "activity (transposition frequency)", "setting": "[11]; [16]", "result": "1e-08"}, {"measurement": "activity (transposition frequency)", "setting": "[12]; [15]", "result": 0.0084}, {"measurement": "activity (transposition frequency)", "setting": "[13]; [15]", "result": 0.0058}, {"measurement": "activity (transposition frequency)", "setting": "[14]; [15]", "result": 0.0074}, {"measurement": "activity (transposition frequency)", "setting": "Tnp E344K plus one E344K; dam methylation of adenines in the two GATC sites (four methyl groups per end), 4.3-fold over WT", "result": "4.3e-08"}]}
{"substance": "Tn5 inside end (IE), unmethylated", "values": [{"measurement": "activity (transposition frequency)", "setting": "[4]; dam- strain", "result": 0.0018}, {"measurement": "activity (transposition frequency)", "setting": "[11]; dam- strain", "result": "6.5e-05"}]}
{"substance": "Tn5 outside end (OE)", "values": [{"measurement": "activity (transposition frequency)", "setting": "[2]", "result": "4e-06"}, {"measurement": "activity (transposition frequency)", "setting": "[3]", "result": "4.5e-06"}, {"measurement": "activity (transposition frequency)", "setting": "[4]; dam- strain, 3.3e-6 in dam+ strain", "result": "3.7e-05"}, {"measurement": "activity (transposition frequency)", "setting": "[5]", "result": "1.1e-06"}, {"measurement": "activity (transposition frequency)", "setting": "Tnp R8C plus one R8C", "result": "4e-07"}, {"measurement": "activity (transposition frequency)", "setting": "[6]", "result": "2.8e-07"}, {"measurement": "activity (transposition frequency)", "setting": "Tnp L372Q plus one L372Q", "result": "1.1e-05"}, {"measurement": "activity (transposition frequency)", "setting": "[7]", "result": "7e-06"}, {"measurement": "activity (transposition frequency)", "setting": "[8]", "result": "6e-06"}, {"measurement": "activity (transposition frequency)", "setting": "[9]", "result": "2.6e-06"}, {"measurement": "activity (transposition frequency)", "setting": "[10]", "result": "1.7e-05"}, {"measurement": "activity (transposition frequency)", "setting": "Tnp D217A plus one D217A", "result": "3.4e-06"}, {"measurement": "activity (transposition frequency)", "setting": "Tnp E58V plus one E58V", "result": "1.4e-06"}, {"measurement": "activity (transposition frequency)", "setting": "Tnp A157T plus one A157T", "result": "6.6e-07"}, {"measurement": "activity (transposition frequency)", "setting": "Tnp T171S plus one T171S", "result": "1.8e-06"}, {"measurement": "activity (transposition frequency)", "setting": "[11]; dam- strain, 3.1e-6 in dam+ strain", "result": "6.5e-05"}, {"measurement": "activity (transposition frequency)", "setting": "[12]", "result": "2.25e-05"}, {"measurement": "activity (transposition frequency)", "setting": "[13]", "result": "1.18e-05"}, {"measurement": "activity (transposition frequency)", "setting": "[14]", "result": "7.1e-06"}, {"measurement": "activity (transposition frequency)", "setting": "Tnp E344K plus one E344K", "result": "6.8e-07"}]}
